Measurements from PMC4938799, “LD Motif Recognition by Talin: Structure of the Talin-DLC1 Complex” (Structure(London, England:1993), 2016).

Molecular target: T1, talin R8 domain
T1 construct: talin rod domain R8 (four-helix bundle), isolated domain used 15N-labelled for NMR; Construct limits, host and species are probably in the Supplemental Experimental Procedures; also called [15N]talin R8 domain
Test: NMR titration; KD fitted from 1H,15N-HSQC chemical-shift changes; 0.1 mM 15N talin R8, peptide/protein ratios 0.1 to 8; 298 K, 20 mM sodium phosphate pH 6.5, 50 mM NaCl
Conditions: both partners purified

Row | Binder | Kd [µM]
1 | MDDLDALLADLESTTS [paxillin LD1 peptide] | 168
2 | ENEDIFPELDDILYHVKGMQRIVNQWSEK (Paper numbering is the 1091-residue isoform; +437 gives canonical numbering.) [DLC1(461–489) peptide] | 48
